This is an account of results in paper PMC5605669, “Dimerization regulates both deaminase-dependent and deaminase-independent HIV-1 restriction by APOBEC3G” (Nature Communications, 2017).

Data set [1] concerns the molecule itself. In words: cell-based or functional assay.
Data set [2] concerns the molecule itself. In words: AFM imaging; 70 nM A3G incubated 10 min with linearized m13 ssDNA in 10 mM Tris, 2.5 mM NaCl; deposited on APTES coated mica, imaged in liquid; monomers per cluster on ssDNA from cluster volume.
Data set [3] concerns the molecule itself. Put plainly: optical tweezers (single-molecule ssDNA extension); fraction of bound A3G that stays stably bound after washing with buffer, against incubation time (200 to 1000 s) at 50 nM; single exponential fit gives the oligomerization rate on ssDNA at 80 pN.

B1: APOBEC3G, wild type (enzyme, human, UniProt Q9HC16 1-384, looked up)
chain: MKPHFRNTVERMYRDTFSYNFYNRPILSRRNTVWLCYEVKTKGPSRPPLDAKIFRGQVYSELKYHPEMRFFHWFSKWRKLHRDQEYEVTWYISWSPCTKCTRDMATFLAEDPKVTLTIFVARLYYFWDPDYQEALRSLCQKRDGPRATMKIMNYDEFQHCWSKFVYSQRELFEPWNNLPKYYILLHIMLGEILRHSMDPPTFTFNFNNEPWVRGRHETYLCYEVERMHNDTWVLLNQRRGFLCNQAPHKHGFLEGRHAELCFLDVIPFWKLDLDQDYRVTCFTSWSPCFSCAQEMAKFISKNKHVSLCIFTARIYDDQGRCQEGLRTLAEAGAKISIMTYSEFKHCWDTFVDHQGCPFQPWDGLDEHSQDLSGRLRAILQNQEN
As to B1, the “deaminase activity on labeled 118-nt ssDNA after 3 min pre-incubation of 25 nM A3G with unlabeled 69-nt trap ssDNA (0.5 to 5 mM as printed), fold reduction (threefold to 13-fold)” value in data set [1] is 13 fold.

B2: APOBEC3G R313A-D316A-D317A-Q318A (CTD mutant) (enzyme, human, UniProt Q9HC16 1-384, looked up)
chain: MKPHFRNTVERMYRDTFSYNFYNRPILSRRNTVWLCYEVKTKGPSRPPLDAKIFRGQVYSELKYHPEMRFFHWFSKWRKLHRDQEYEVTWYISWSPCTKCTRDMATFLAEDPKVTLTIFVARLYYFWDPDYQEALRSLCQKRDGPRATMKIMNYDEFQHCWSKFVYSQRELFEPWNNLPKYYILLHIMLGEILRHSMDPPTFTFNFNNEPWVRGRHETYLCYEVERMHNDTWVLLNQRRGFLCNQAPHKHGFLEGRHAELCFLDVIPFWKLDLDQDYRVTCFTSWSPCFSCAQEMAKFISKNKHVSLCIFTAAIYAAAGRCQEGLRTLAEAGAKISIMTYSEFKHCWDTFVDHQGCPFQPWDGLDEHSQDLSGRLRAILQNQEN
notes: APOBEC3G (A3G), human, with R313A, D316A, D317A and Q318A in the C-terminal domain; The methods describe the making of A3G in general; also called RDDQ; RDDQ A3G; source: Sf9 cells (recombinant baculovirus), purified in the presence of RNase A
With B2, in data set [2], the binding result is listed as “binds”.

B3: APOBEC3G F126A-W127A (NTD mutant) (enzyme, human, UniProt Q9HC16 1-384, looked up)
chain: MKPHFRNTVERMYRDTFSYNFYNRPILSRRNTVWLCYEVKTKGPSRPPLDAKIFRGQVYSELKYHPEMRFFHWFSKWRKLHRDQEYEVTWYISWSPCTKCTRDMATFLAEDPKVTLTIFVARLYYAADPDYQEALRSLCQKRDGPRATMKIMNYDEFQHCWSKFVYSQRELFEPWNNLPKYYILLHIMLGEILRHSMDPPTFTFNFNNEPWVRGRHETYLCYEVERMHNDTWVLLNQRRGFLCNQAPHKHGFLEGRHAELCFLDVIPFWKLDLDQDYRVTCFTSWSPCFSCAQEMAKFISKNKHVSLCIFTARIYDDQGRCQEGLRTLAEAGAKISIMTYSEFKHCWDTFVDHQGCPFQPWDGLDEHSQDLSGRLRAILQNQEN
notes: APOBEC3G (A3G), human, with F126A and W127A in the N-terminal domain; The methods describe the making of A3G in general; also called FW; FW A3G; source: Sf9 cells (recombinant baculovirus), purified in the presence of RNase A
For B3, the “fold reduction of oligomerization rate against WT” value in data set [3] came out at 3 fold.

B4: APOBEC3G I314A-Y315A (CTD mutant) (enzyme, human, UniProt Q9HC16 1-384, looked up)
chain: MKPHFRNTVERMYRDTFSYNFYNRPILSRRNTVWLCYEVKTKGPSRPPLDAKIFRGQVYSELKYHPEMRFFHWFSKWRKLHRDQEYEVTWYISWSPCTKCTRDMATFLAEDPKVTLTIFVARLYYFWDPDYQEALRSLCQKRDGPRATMKIMNYDEFQHCWSKFVYSQRELFEPWNNLPKYYILLHIMLGEILRHSMDPPTFTFNFNNEPWVRGRHETYLCYEVERMHNDTWVLLNQRRGFLCNQAPHKHGFLEGRHAELCFLDVIPFWKLDLDQDYRVTCFTSWSPCFSCAQEMAKFISKNKHVSLCIFTARAADDQGRCQEGLRTLAEAGAKISIMTYSEFKHCWDTFVDHQGCPFQPWDGLDEHSQDLSGRLRAILQNQEN
notes: APOBEC3G (A3G), human, with I314A and Y315A in the C-terminal domain; The methods describe the making of A3G in general; also called IY; IY A3G; source: Sf9 cells (recombinant baculovirus), purified in the presence of RNase A
In the case of B4, in data set [2], the binding result is “binds”.
